Test results: PMC11748629, “Unidirectional MCM translocation away from ORC drives origin licensing” (Nature Communications, 2025)
One block for each binder: values may come before it.

B4: Orc4 (natural protein, Saccharomyces cerevisiae)
chain: MTISEARLSPQVNLLPIKRHSNEEVEETAAILKKRTIDNEKCKDSDPGFGSLQRRLLQQLYGTLPTDEKIIFTYLQDCQQEIDRIIKQSIIQKESHSVILVGPRQSYKTYLLDYELSLLQQSYKEQFITIRLNGFIHSEQTAINGIATQLEQQLQKIHGSEEKIDDTSLETISSGSLTEVFEKILLLLDSTTKTRNEDSGEVDRESITKITVVFIFDEIDTFAGPVRQTLLYNLFDMVEHSRVPVCIFGCTTKLNILEYLEKRVKSRFSQRVIYMPQIQNLDDMVDAVRNLLTVRSEISPWVSQWNETLEKELSDPRSNLNRHIRMNFETFRSLPTLKNSIIPLVATSKNFGSLCTAIKSCSFLDIYNKNQLSNNLTGRLQSLSDLELAILISAARVALRAKDGSFNFNLAYAEYEKMIKAINSRIPTVAPTTNVGTGQSTFSIDNTIKLWLKKDVKNVWENLVQLDFFTEKSAVGLRDNATAAFYASNYQFQGTMIPFDLRSYQMQIILQELRRIIPKSNMYYSWTQL
notes: Orc4, S. cerevisiae; Subunit of m1, written alone for the contacts seen in the structures; also called Orc4 subunit of ORC; source: S. cerevisiae strain ySD-ORC, purified as a subunit of ORC

Experiments:
Test in all cases: cryo-EM structure; OCCM^Mcm2RA: 30 nM MH-ARS1-MH DNA, 60 nM ORC, 90 nM Cdc6, 60 nM MCM-Cdt1 (Mcm2 R676A), 3 mM ATP; 25 mM HEPES pH 7.6, 100 mM potassium chloride, 10 mM magnesium acetate, 1 mM DTT; 30 °C, 30 min; 3.3 Å consensus, 3.2 Å local refinements
Conditions in all cases: both partners purified
[1] = biological target: T1, Mcm6 (Saccharomyces cerevisiae, UniProt P53091 1-1017)
T1 construct: Mcm6, S. cerevisiae; Subunit of m4 and m7, written alone for the contacts seen in the structures; also called Mcm6 subunit of MCM; source: S. cerevisiae strains yGC216 and yGC226, purified as a subunit of MCM-Cdt1
T1 sequence (P53091 whole entry): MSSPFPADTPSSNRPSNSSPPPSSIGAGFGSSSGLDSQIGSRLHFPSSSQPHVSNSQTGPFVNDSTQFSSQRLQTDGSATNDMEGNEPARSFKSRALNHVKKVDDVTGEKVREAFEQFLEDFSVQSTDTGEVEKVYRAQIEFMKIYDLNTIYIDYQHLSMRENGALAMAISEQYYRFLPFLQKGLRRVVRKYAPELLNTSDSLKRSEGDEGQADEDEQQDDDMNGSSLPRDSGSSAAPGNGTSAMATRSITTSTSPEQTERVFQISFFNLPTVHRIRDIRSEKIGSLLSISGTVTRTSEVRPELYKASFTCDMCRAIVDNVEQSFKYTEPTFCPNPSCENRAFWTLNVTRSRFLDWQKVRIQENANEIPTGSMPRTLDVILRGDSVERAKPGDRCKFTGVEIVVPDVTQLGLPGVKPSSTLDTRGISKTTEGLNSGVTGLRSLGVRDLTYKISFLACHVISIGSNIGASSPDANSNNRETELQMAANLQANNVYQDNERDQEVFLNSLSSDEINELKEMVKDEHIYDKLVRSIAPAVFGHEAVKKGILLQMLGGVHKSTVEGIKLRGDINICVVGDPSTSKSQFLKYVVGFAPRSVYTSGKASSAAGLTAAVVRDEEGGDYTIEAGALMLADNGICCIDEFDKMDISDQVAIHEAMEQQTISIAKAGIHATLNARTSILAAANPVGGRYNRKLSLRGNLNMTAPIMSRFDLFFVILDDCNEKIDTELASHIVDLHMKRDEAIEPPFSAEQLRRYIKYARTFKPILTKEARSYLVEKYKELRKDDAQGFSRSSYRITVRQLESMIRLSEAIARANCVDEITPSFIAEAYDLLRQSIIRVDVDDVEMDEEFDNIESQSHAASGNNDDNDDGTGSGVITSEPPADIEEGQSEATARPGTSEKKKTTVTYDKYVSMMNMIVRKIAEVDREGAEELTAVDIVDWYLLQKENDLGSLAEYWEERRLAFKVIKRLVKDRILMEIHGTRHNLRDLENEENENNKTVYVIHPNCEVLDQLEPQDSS

[2] = biological target: T2, Origin Recognition Complex (ORC) (Saccharomyces cerevisiae, UniProt P54784 1-914; P32833 1-620; P54790 1-616; P54791 1-529; P50874 1-479; P38826 …)
T2 construct: Orc1, S. cerevisiae; Orc2, S. cerevisiae; Orc3, S. cerevisiae; Orc4, S. cerevisiae; Orc5, S. cerevisiae; Orc6, S. cerevisiae; also called ORC complex; copies: + + + + +
T2 sequence (P32833 whole entry, chain 2 of 2): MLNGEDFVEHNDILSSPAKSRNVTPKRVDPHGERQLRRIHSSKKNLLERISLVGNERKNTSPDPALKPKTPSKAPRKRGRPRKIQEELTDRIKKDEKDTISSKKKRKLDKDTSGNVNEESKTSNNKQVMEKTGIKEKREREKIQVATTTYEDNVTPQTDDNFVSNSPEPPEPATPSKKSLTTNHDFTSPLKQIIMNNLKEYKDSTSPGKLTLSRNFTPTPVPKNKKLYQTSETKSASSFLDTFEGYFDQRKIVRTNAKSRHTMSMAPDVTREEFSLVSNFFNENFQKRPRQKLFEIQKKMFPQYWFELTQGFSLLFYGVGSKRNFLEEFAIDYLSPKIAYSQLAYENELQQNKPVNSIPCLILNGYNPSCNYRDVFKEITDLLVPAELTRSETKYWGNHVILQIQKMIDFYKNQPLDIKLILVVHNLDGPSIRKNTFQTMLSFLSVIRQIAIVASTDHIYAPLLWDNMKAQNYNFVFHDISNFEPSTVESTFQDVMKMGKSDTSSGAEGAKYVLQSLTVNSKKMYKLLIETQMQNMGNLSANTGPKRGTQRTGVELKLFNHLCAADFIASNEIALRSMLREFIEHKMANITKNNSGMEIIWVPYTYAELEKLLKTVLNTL
T2 sequence (P38826 whole entry, chain 6 of 2): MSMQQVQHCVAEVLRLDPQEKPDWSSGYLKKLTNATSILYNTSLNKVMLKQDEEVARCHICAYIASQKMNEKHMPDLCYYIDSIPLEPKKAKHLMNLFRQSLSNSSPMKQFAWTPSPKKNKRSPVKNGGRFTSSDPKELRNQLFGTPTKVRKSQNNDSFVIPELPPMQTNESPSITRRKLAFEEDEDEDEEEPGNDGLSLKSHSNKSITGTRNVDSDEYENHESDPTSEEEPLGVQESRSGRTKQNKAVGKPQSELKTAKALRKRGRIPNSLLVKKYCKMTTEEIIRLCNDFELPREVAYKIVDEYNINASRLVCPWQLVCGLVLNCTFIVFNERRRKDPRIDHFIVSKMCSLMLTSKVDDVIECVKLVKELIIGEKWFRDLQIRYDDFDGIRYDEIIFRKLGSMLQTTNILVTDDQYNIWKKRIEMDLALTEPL

[3] = biological target: T3, Orc1 (Saccharomyces cerevisiae, UniProt P54784 1-914)
T3 construct: Orc1, S. cerevisiae; Subunit of m1, written alone for the contacts seen in the structures; also called Orc1 subunit of ORC; source: S. cerevisiae strain ySD-ORC, purified as a subunit of ORC
T3 sequence: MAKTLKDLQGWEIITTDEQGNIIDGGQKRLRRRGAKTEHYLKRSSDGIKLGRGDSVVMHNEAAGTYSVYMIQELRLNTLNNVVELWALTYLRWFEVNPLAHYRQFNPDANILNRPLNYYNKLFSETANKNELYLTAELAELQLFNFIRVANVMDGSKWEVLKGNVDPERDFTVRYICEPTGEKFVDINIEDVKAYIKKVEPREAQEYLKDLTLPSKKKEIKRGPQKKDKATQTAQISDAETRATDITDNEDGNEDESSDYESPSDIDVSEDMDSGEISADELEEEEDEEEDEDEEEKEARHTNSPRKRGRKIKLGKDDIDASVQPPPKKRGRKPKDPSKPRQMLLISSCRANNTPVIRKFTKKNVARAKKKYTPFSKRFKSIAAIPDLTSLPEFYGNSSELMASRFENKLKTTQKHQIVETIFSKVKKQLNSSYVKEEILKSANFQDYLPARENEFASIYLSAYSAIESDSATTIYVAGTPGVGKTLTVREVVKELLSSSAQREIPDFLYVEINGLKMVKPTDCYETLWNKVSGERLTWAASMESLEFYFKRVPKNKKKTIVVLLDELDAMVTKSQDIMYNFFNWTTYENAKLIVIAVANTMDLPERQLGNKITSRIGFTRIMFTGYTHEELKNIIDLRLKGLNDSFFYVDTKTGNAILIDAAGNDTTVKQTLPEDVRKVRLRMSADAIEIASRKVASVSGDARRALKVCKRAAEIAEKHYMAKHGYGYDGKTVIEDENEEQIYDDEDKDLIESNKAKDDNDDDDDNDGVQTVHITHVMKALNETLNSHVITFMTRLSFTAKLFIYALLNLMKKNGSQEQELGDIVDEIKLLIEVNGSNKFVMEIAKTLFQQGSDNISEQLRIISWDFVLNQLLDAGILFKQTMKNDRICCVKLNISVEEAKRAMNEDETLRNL

[4] = biological target: B4
[5] = biological target: T4, Orc3 (Saccharomyces cerevisiae, UniProt P54790 1-616)
T4 construct: Orc3, S. cerevisiae; Subunit of m1, written alone for the contacts seen in the structures; also called Orc3 subunit of ORC; source: S. cerevisiae strain ySD-ORC, purified as a subunit of ORC
T4 sequence: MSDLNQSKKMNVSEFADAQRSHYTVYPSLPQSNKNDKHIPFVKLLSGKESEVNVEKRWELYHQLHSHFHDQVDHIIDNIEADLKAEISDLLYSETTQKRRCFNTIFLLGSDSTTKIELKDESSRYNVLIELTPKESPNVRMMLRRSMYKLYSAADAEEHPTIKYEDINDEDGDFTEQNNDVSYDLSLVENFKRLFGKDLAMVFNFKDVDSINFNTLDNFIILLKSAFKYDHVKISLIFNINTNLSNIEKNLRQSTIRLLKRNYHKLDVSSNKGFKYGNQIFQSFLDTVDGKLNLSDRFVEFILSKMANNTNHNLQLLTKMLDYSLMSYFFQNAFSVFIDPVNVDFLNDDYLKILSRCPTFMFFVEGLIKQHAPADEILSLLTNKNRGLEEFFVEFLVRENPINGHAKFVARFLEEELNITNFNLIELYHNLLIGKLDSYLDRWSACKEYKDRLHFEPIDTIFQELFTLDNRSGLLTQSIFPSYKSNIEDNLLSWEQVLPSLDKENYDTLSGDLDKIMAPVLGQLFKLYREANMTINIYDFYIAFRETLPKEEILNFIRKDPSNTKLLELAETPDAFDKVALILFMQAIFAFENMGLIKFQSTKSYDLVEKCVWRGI

binding result [1]: binds
B1: Mcm2 R676A (natural protein, Saccharomyces cerevisiae)
chain: MSDNRRRRREEDDSDSENELPPSSPQQHFRGGMNPVSSPIGSPDMINPEGDDNEVDDVPDIDEVEEQMNEVDLMDDNMYEDYAADHNRDRYDPDQVDDREQQELSLSERRRIDAQLNERDRLLRNVAYIDDEDEEQEGAAQLDEMGLPVQRRRRRRQYEDLENSDDDLLSDMDIDPLREELTLESLSNVKANSYSEWITQPNVSRTIARELKSFLLEYTDETGRSVYGARIRTLGEMNSESLEVNYRHLAESKAILALFLAKCPEEMLKIFDLVAMEATELHYPDYARIHSEIHVRISDFPTIYSLRELRESNLSSLVRVTGVVTRRTGVFPQLKYVKFNCLKCGSILGPFFQDSNEEIRISFCTNCKSKGPFRVNGEKTVYRNYQRVTLQEAPGTVPPGRLPRHREVILLADLVDVSKPGEEVEVTGIYKNNYDGNLNAKNGFPVFATIIEANSIKRREGNTANEGEEGLDVFSWTEEEEREFRKISRDRGIIDKIISSMAPSIYGHRDIKTAVACSLFGGVPKNVNGKHSIRGDINVLLLGDPGTAKSQILKYVEKTAHRAVFATGQGASAVGLTASVRKDPITKEWTLEGGALVLADKGVCLIDEFDKMNDQDRTSIHEAMEQQSISISKAGIVTTLQARCSIIAAANPNGGRYNSTLPLAQNVSLTEPILSAFDILCVVRDLVDEEADERLATFVVDSHVRSHPENDEDREGEELKNNGESAIEQGEDEINEQLNARQRRLQRQRKKEEEISPIPQELLMKYIHYARTKIYPKLHQMDMDKVSRVYADLRRESISTGSFPITVRHLESILRIAESFAKMRLSEFVSSYDLDRAIKVVVDSFVDAQKVSVRRQLRRSFAIYTLGH
notes: Mcm2, S. cerevisiae; Subunit of m4, written alone for the contacts seen in OCCM^Mcm2RA; also called Mcm2RA; source: S. cerevisiae strain yGC216, purified as a subunit of MCM-Cdt1

binding result [2]: binds
binding result [3]: binds
B2: Saccharomyces cerevisiae Cdc6 (natural protein, UniProt P09119 1-513, looked up)
chain: MSAIPITPTKRIRRNLFDDAPATPPRPLKRKKLQFTDVTPESSPEKLQFGSQSIFLRTKALLQKSSELVNLNSSDGALPARTAEYEQVMNFLAKAISEHRSDSLYITGPPGTGKTAQLDMIIRQKFQSLPLSLSTPRSKDVLRHTNPNLQNLSWFELPDGRLESVAVTSINCISLGEPSSIFQKIFDSFQDLNGPTLQIKNMQHLQKFLEPYHKKTTFVVVLDEMDRLLHANTSETQSVRTILELFLLAKLPTVSFVLIGMANSLDMKDRFLSRLNLDRGLLPQTIVFQPYTAEQMYEIVIQKMSSLPTIIFQPMAIKFAAKKCAGNTGDLRKLFDVLRGSIEIYELEKRFLLSPTRGSLNSAQVPLTPTTSPVKKSYPEPQGKIGLNYIAKVFSKFVNNNSTRTRIAKLNIQQKLILCTIIQSLKLNSDATIDESFDHYIKAITKTDTLAPLQRNEFLEICTILETCGLVSIKKTKCKGKTKRFVDKIDVDLDMREFYDEMTKISILKPFLH
notes: Cdc6, S. cerevisiae; source: E. coli BL21(CodonPlus)-RIL, plasmid pAM3, purified (glutathione sepharose, preScission protease, hydroxyapatite)

binding result [4]: binds
binding result [5]: binds
B3: Orc5 (natural protein, Saccharomyces cerevisiae)
chain: MNVTTPEVAFREYQTNCLASYISADPDITPSNLILQGYSGTGKTYTLKKYFNANPNLHAVWLEPVELVSWKPLLQAIARTVQYKLKTLYPNIPTTDYDPLQVEEPFLLVKTLHNIFVQYESLQEKTCLFLILDGFDSLQDLDAALFNKYIKLNELLPKDSKINIKFIYTMLETSFLQRYSTHCIPTVMFPRYNVDEVSTILVMSRCGELMEDSCLRKRIIEEQITDCTDDQFQNVAANFIHLIVQAFHSYTGNDIFALNDLIDFKWPKYVSRITKENIFEPLALYKSAIKLFLSTDDNLSENGQGESAITTNRDDLENSQTYDLSIISKYLLIASYICSYLEPRYDASIFSRKTRIIQGRAAYGRRKKKEVNPRYLQPSLFAIERLLAIFQAIFPIQGKAESGSLSALREESLMKANIEVFQNLSELHTLKLIATTMNKNIDYLSPKVRWKVNVPWEIIKEISESVHFNISDYFSDIHE
notes: Orc5, S. cerevisiae; Subunit of m1, written alone for the contacts seen in the structures; also called Orc5 subunit of ORC; source: S. cerevisiae strain ySD-ORC, purified as a subunit of ORC

Binder: B4
binding result [3]: binds
